Results from article PMC11093223 (2024).

B1: STX16 DD209-210AA (peptide)
chain: AANTLYHRGFTED
B2: STX16 R216A (peptide)
chain: DDNTLYHAGFTED
B3: syntaxin-16 (209–221) peptide (peptide)
peptide: DDNTLYHRGFTED

Assays:
[1] = molecular target: TBC1D23 C-terminal domain (mouse, UniProt Q8K0F1 559-684); assay: ITC
[2] = molecular target: TBC1D23 C-terminal domain K672A (mouse, UniProt Q8K0F1 559-677, K672A); assay: ITC
Sequence of TBC1D23 C-terminal domain K672A (Q8K0F1 559-677 K672A): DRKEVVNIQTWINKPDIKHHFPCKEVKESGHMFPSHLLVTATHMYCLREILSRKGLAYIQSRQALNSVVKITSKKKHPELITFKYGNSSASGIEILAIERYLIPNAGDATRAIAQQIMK

Sequence of TBC1D23 C-terminal domain (Q8K0F1 559-684): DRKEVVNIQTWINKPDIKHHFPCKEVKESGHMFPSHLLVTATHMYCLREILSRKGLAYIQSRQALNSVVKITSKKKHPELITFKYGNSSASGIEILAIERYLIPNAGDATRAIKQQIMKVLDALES

Binder	Kd [1]	Kd [2]
B1	> 200 µM	–
B2	10.3 µM	–
B3	–	27.5 µM
